Experimental data taken from the supplement of paper PMC9112550, “Optimization of the antimicrobial peptide Bac7 by deep mutational scanning” (BMC Biology, 2022).

What follows are sequences tested on Escherichia coli TOP10 (assay: shrunken log2 fold change of peptide-encoding DNA abundance (4.5 h post-induction vs induction); higher = less antimicrobial activity (less host growth inhibition)). Conditions: time post-induction: 4.5 h; library: site-saturation at positions 5, 18, 19, 20.
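Note: peptides expressed intracellularly from a pBAD plasmid library in pooled LB shake-flask culture, induced with 0.3% L-arabinose, DNA abundance read by NGS, three biological replicates, DESeq2 with apeglm shrinkage.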

Row | Sequence | shrunken log2 fold change
1 | RRIRERPPRLPRPRPRPDGIPRP | -0.00168
2 | RRIRERPPRLPRPRPRPDGSPRP | 0.0355
3 | RRIRERPPRLPRPRPRPDIAPRP | -0.0321
4 | RRIRERPPRLPRPRPRPDIWPRP | -0.0258
5 | RRIRERPPRLPRPRPRPDKFPRP | -0.466
6 | RRIRERPPRLPRPRPRPDKLPRP | -1.81
7 | RRIRERPPRLPRPRPRPDMEPRP | -0.201
8 | RRIRERPPRLPRPRPRPDMPPRP | -0.447
9 | RRIRERPPRLPRPRPRPDPGPRP | 0.0879
10 | RRIRERPPRLPRPRPRPDPMPRP | -0.0562
11 | RRIRERPPRLPRPRPRPDRMPRP | -0.0498
12 | RRIRERPPRLPRPRPRPDTAPRP | -0.131
13 | RRIRERPPRLPRPRPRPDTSPRP | -0.417
14 | RRIRERPPRLPRPRPRPDTTPRP | 0.0503
15 | RRIRERPPRLPRPRPRPDVRPRP | 0.0184
16 | RRIRERPPRLPRPRPRPDVTPRP | 0.00636
17 | RRIRERPPRLPRPRPRPDWSPRP | -0.0645
18 | RRIRERPPRLPRPRPRPDWTPRP | 0.0763
19 | RRIRERPPRLPRPRPRPDYCPRP | -0.00145
20 | RRIRERPPRLPRPRPRPDYEPRP | -0.202
21 | RRIRERPPRLPRPRPRPDYYPRP | -0.603
22 | RRIRERPPRLPRPRPRPEAVPRP | 0.292
23 | RRIRERPPRLPRPRPRPEAYPRP | -0.0132
24 | RRIRERPPRLPRPRPRPECKPRP | -0.132
25 | RRIRERPPRLPRPRPRPEDKPRP | -0.034

Row | Sequence | shrunken log2 fold change
26 | RRIRERPPRLPRPRPRPEEEPRP | 0.102
27 | RRIRERPPRLPRPRPRPEELPRP | 0.174
28 | RRIRERPPRLPRPRPRPEFMPRP | -0.096
29 | RRIRERPPRLPRPRPRPEGRPRP | 0.583
30 | RRIRERPPRLPRPRPRPEHAPRP | -0.0115
31 | RRIRERPPRLPRPRPRPEHMPRP | -0.0272
32 | RRIRERPPRLPRPRPRPEHSPRP | -0.312
33 | RRIRERPPRLPRPRPRPEKLPRP | -0.296
34 | RRIRERPPRLPRPRPRPELAPRP | 0.161
35 | RRIRERPPRLPRPRPRPELDPRP | 0.0389
36 | RRIRERPPRLPRPRPRPELWPRP | 0.273
37 | RRIRERPPRLPRPRPRPENFPRP | -0.195
38 | RRIRERPPRLPRPRPRPENWPRP | -0.0337
39 | RRIRERPPRLPRPRPRPEPAPRP | 0.428
40 | RRIRERPPRLPRPRPRPEPLPRP | -0.091
41 | RRIRERPPRLPRPRPRPEPRPRP | 0.379
42 | RRIRERPPRLPRPRPRPEPTPRP | 0.327
43 | RRIRERPPRLPRPRPRPEQMPRP | -6.54e-05
44 | RRIRERPPRLPRPRPRPERSPRP | 0.149
45 | RRIRERPPRLPRPRPRPESIPRP | 0.089
46 | RRIRERPPRLPRPRPRPESLPRP | 0.0354
47 | RRIRERPPRLPRPRPRPETFPRP | -0.0158
48 | RRIRERPPRLPRPRPRPEVRPRP | 0.138
49 | RRIRERPPRLPRPRPRPEWAPRP | 0.103
50 | RRIRERPPRLPRPRPRPEWHPRP | 0.0244

Row | Sequence | shrunken log2 fold change
51 | RRIRERPPRLPRPRPRPEWKPRP | 0.0685
52 | RRIRERPPRLPRPRPRPEWLPRP | -0.062
53 | RRIRERPPRLPRPRPRPFAFPRP | -0.0942
54 | RRIRERPPRLPRPRPRPFCFPRP | -0.106
55 | RRIRERPPRLPRPRPRPFCRPRP | -0.0911
56 | RRIRERPPRLPRPRPRPFDEPRP | -0.433
57 | RRIRERPPRLPRPRPRPFDWPRP | 0.0619
58 | RRIRERPPRLPRPRPRPFFCPRP | -0.0755
59 | RRIRERPPRLPRPRPRPFFKPRP | -0.37
60 | RRIRERPPRLPRPRPRPFFPPRP | -0.241
61 | RRIRERPPRLPRPRPRPFHHPRP | 0.0149
62 | RRIRERPPRLPRPRPRPFHVPRP | -0.854
63 | RRIRERPPRLPRPRPRPFIDPRP | -0.288
64 | RRIRERPPRLPRPRPRPFIQPRP | -0.176
65 | RRIRERPPRLPRPRPRPFKAPRP | 2.45
66 | RRIRERPPRLPRPRPRPFKCPRP | -0.457
67 | RRIRERPPRLPRPRPRPFKKPRP | -0.0194
68 | RRIRERPPRLPRPRPRPFKSPRP | -0.0568
69 | RRIRERPPRLPRPRPRPFLMPRP | -0.209
70 | RRIRERPPRLPRPRPRPFMKPRP | -0.0971
71 | RRIRERPPRLPRPRPRPFNKPRP | -0.383
72 | RRIRERPPRLPRPRPRPFPRPRP | 0.087
73 | RRIRERPPRLPRPRPRPFQDPRP | 0.0039
74 | RRIRERPPRLPRPRPRPFQTPRP | 0.11
75 | RRIRERPPRLPRPRPRPFRDPRP | 0.0112
